From patent US20260166145A1 (Memorial Sloan Kettering, published 2026)

B1: HuM195 single-chain variable fragment (scFv), purified, with C-terminal His-tag (scFv)
scFv: QVQLVQSGAEVKKPGSSVKVSCKASGYTFTDYNMHWVRQAPGQGLEWIGYIYPYNGGTGYNQKFKSKATITADESTNTAYMELSSLRSEDTAVYYCARGRPAMDYWGQGTLVTVSSGGGGSGGGGSGGGGSDIQMTQSPSSLSASVGDRVTITCRASESVDNYGISFMNWFQQKPGGAPKLLIYAASNQGSGVPSRFSGSGSGTDFTLTISSLQPDDFATYYCQQSKEVPWTFGQGTKVEIKHHHHHHHH
notes: Expressed from the pSF-CMV-Puro-IL2 secretion plasmid in FreeStyle 293 cells and purified on a Histrap column; Monomeric by size exclusion chromatography; also called HuM195 scFv; Hu195 scFv
B2: Lintuzumab (HuM195) antibody (antibody, V domains shown)
VH: QVQLVQSGAEVKKPGSSVKVSCKASGYTFTDYNMHWVRQAPGQGLEWIGYIYPYNGGTGYNQKFKSKATITADESTNTAYMELSSLRSEDTAVYYCARGRPAMDYWGQGTLVTVSS
VL: DIQMTQSPSSLSASVGDRVTITCRASESVDNYGISFMNWFQQKPGGAPKLLIYAASNQGSGVPSRFSGSGSGTDFTLTISSLQPDDFATYYCQQSKEVPWTFGQGTKVEIK
notes: also called Hu195; Hu195 antibody

Assays:
[1] = target: T1, Human CD33-FC protein (R&D Systems) (human, UniProt P20138 18-259); assay: BLI (Octet RED96e): human CD33-FC captured on anti-hIgG Fc Capture biosensors, scFv in solution; monovalent scFv, not IgG
T1 construct: Bought reagent; also called purified CD33-FC; not shown: Fc part of the bought fusion; it is captured by anti-hIgG Fc biosensors

[2] = target: T1, Human CD33-FC protein (R&D Systems); assay: BLI (Octet RED96e) on captured human CD33-FC; reference is HuM195 scFv
Excerpt: (§1) Equilibrium dissociation constant (Kd) measurement with bio-layer interferometry (BLI) biosensor. Human CD33-FC protein (R&D Systems, Minneapolis, MN) was captured on Anti-hIgG Fc Capture (AHC) Biosensors (ForteBio, Fremont, CA) overnight and blocked with FC. […] The binding graphs were fitted to a Kd constant model.

[3] = target: T1, Human CD33-FC protein (R&D Systems); assay: competitive ELISA on coated CD33-FC: pre-incubation with increasing HuM195 antibody, then HuM195 scFv at 100 nM, detected with anti-human Fab-HRP; signal normalised to 0 nM HuM195 falls from about 95-100 to about 10 on the axis named Blocked (%)
[4] = target: T1, Human CD33-FC protein (R&D Systems); assay: BLI (Octet RED96e): human CD33-FC captured on anti-hIgG Fc Capture biosensors, antibody in solution; full-length bivalent HuM195 IgG
Excerpt: as §1

T1 sequence (P20138 18-259 limits assumed): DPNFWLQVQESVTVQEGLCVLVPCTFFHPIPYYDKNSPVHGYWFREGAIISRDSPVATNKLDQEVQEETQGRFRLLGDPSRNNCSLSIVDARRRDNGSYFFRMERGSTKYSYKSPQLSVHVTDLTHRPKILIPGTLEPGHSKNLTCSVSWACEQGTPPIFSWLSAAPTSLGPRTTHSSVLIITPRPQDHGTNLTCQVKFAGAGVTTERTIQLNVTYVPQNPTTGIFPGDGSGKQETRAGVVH

Binder | Kd [1] [nM] | fold difference of Kd against HuM195 scFv [2] [fold] | IC50 [3] [nM] | Kd [4] [nM]
B1 | 1.81 |  |  | 
B2 |  | ~30 | 0.716 | 0.0627
